Results on one molecule are retold here after publication PMC11487180, “PAK6 rescues pathogenic LRRK2-mediated ciliogenesis and centrosomal cohesion defects in a mutation-specific manner” (Cell Death & Disease, 2024).

In this assay the target is T1, AK7 (human, UniProt Q96M32 1-723).
T1 construct: AK7, human, recombinant protein on the HuProt array; source: bought: HuProt Human Proteome Microarray v4.0, Cambridge Protein Arrays (recombinant protein spotted on the array)
Put plainly: peptide or protein array; HuProt Human Proteome Microarray v4.0 (GST proteins spotted) incubated with recombinant PAK6 in 2% BSA, PBS, 0.05% Tween20 for 2 h at RT; detected with anti-PAK6 and fluorophore conjugated secondary antibody; hits by Z score > 2.5. The conditions noted are these: both partners purified.

T1 sequence (Q96M32 whole entry): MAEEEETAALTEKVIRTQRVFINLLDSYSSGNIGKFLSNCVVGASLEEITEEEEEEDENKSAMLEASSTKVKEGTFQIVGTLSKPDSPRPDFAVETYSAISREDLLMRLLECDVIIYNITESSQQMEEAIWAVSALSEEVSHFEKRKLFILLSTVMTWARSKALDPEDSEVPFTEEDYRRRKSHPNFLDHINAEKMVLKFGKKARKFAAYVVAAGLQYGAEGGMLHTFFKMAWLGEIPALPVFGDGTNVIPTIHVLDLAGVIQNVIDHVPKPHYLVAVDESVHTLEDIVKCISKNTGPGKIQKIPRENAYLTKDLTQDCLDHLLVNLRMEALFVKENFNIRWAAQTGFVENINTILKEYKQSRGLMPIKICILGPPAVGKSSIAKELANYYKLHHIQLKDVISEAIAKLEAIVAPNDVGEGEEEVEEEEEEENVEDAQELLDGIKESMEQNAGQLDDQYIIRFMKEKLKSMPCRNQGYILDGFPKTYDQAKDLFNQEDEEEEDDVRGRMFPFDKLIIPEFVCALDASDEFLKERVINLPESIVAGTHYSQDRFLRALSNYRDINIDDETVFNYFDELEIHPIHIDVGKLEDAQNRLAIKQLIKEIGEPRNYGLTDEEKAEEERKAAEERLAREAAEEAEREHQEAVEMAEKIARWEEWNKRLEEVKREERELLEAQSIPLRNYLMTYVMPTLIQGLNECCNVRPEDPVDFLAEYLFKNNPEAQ

B1: Recombinant full-length human PAK6 (ThermoFisher, #PR5307A) (enzyme, UniProt Q9NQU5 1-681, looked up)
chain: MFRKKKKKRPEISAPQNFQHRVHTSFDPKEGKFVGLPPQWQNILDTLRRPKPVVDPSRITRVQLQPMKTVVRGSAMPVDGYISGLLNDIQKLSVISSNTLRGRSPTSRRRAQSLGLLGDEHWATDPDMYLQSPQSERTDPHGLYLSCNGGTPAGHKQMPWPEPQSPRVLPNGLAAKAQSLGPAEFQGASQRCLQLGACLQSSPPGASPPTGTNRHGMKAAKHGSEEARPQSCLVGSATGRPGGEGSPSPKTRESSLKRRLFRSMFLSTAATAPPSSSKPGPPPQSKPNSSFRPPQKDNPPSLVAKAQSLPSDQPVGTFSPLTTSDTSSPQKSLRTAPATGQLPGRSSPAGSPRTWHAQISTSNLYLPQDPTVAKGALAGEDTGVVTHEQFKAALRMVVDQGDPRLLLDSYVKIGEGSTGIVCLAREKHSGRQVAVKMMDLRKQQRRELLFNEVVIMRDYQHFNVVEMYKSYLVGEELWVLMEFLQGGALTDIVSQVRLNEEQIATVCEAVLQALAYLHAQGVIHRDIKSDSILLTLDGRVKLSDFGFCAQISKDVPKRKSLVGTPYWMAPEVISRSLYATEVDIWSLGIMVIEMVDGEPPYFSDSPVQAMKRLRDSPPPKLKNSHKVSPVLRDFLERMLVRDPQERATAQELLDHPFLLQTGLPECLVPLIQLYRKQTSTC
notes: source: bought: ThermoFisher, #PR5307A
B1: the binding result is given as “binds”.
